This assay concerns the target Human FcRn (neonatal Fc-receptor), C-terminally biotinylated (human) (UniProt P55899). As to the kind of experiment: SPR; pH 6.0.
GDob1 IgG1 (from UniProt P01857) showed a Kd of 23.7 nM. This lies in the double-digit nanomolar range.
To GDob1 IgG1ΔG236 (from UniProt P01857) belongs 25 nM; to GDob1 IgG2 (from UniProt P01859), 39 nM; to GDob1 IgG2 + G236 (from UniProt P01859), 41.8 nM.

By Kd is commonly meant a measure of binding affinity in units of concentration. Low values mean higher affinity, high ones lower affinity.

The values are drawn from PMC6517591.
